Molecular target: FliC-NikRC flagellin variant (flagellin with its D3 domain replaced by the C-terminal Ni-binding domain of NikR) (S. typhimurium | E. coli) (UniProt P0A6Z6)
Experiment: dynamic light scattering; purified FliC-NikRC in solution; conditions not shown (Fig. S1 in the SI)

Substance “FliC-NikRC flagellin variant (flagellin with its D3 domain replaced by the C-terminal Ni-binding domain of NikR) (from UniProt P0A6Z6 50-133)” has a stoichiometry N of 4.
